Measurements from publication PMC4920709.

Target: Proprotein Convertase Subtilisin/Kexin type 9 (PCSK9), human plasma (human (endogenous in plasma)) (UniProt Q8NBP7)
UniProt Q8NBP7, sequence (Q8NBP7 153-692): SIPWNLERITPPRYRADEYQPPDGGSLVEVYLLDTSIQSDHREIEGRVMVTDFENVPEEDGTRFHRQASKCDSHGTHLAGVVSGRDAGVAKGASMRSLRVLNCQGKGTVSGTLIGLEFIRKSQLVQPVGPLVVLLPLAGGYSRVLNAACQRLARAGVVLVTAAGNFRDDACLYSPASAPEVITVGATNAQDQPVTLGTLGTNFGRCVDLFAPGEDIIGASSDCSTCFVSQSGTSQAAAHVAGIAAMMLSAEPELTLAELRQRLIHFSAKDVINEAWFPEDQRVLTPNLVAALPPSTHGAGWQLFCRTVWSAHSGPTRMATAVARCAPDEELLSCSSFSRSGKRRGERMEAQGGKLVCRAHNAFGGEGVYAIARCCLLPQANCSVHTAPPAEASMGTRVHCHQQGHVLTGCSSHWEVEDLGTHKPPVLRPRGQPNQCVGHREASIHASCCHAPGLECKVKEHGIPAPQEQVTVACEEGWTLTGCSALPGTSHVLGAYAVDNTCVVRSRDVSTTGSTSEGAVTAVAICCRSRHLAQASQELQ

## apolipoprotein B-100 (apoB-100) of human plasma LDL and Lp(a) (from UniProt P04114 28-4563) (natural protein)
  percent of plasma PCSK9 associated with apoB: 37%
